In patent US20090111753A1, “Nogo-A Polypeptide Fragments, Variant Nogo Receptor-1 Polypeptides, and Uses Thereof” (Yale University, priority 2004, published 2009):
Substitutions are numbered along the chain they refer to. No end group written: not given here.

B1: human NgR1 alanine mutant 211, 213, 237, 256, 259, 284 (receptor)
chain: CPGACVCYNEPKVTTSCPQQGLQAVPVGIPAASQRIFLHGNRISHVPAASFRACRNLTILWLHSNVLARIDAAAFTGLALLEQLDLSDNAQLRSVDPATFHGLGRLHTLHLDRCGLQELGPGLFRGLAALQYLYLQDNALQALPDDTFRDLGNLTHLFLHGNRISSVPERAFRGLHSLDRLLLHANAVAHVHPHAFRDLGRLMTLYLFANALSALPTEALAPLRALQYLALNANPWVCDCRARPLWAWLQKFRGSSSAVPCSLPQRLAGRDLKRLAANDLQGCAVATGPYHPIWTGRATDEEPLGLPKCCQPDAADKASVLEPGRPASAGNALKGRVPPGDSPPGNGSGPRHINDSPFGTLPGSAEPPLTAVRPEGSEPPGFPTSGPRRRPGCSRKNRTRSHCRLGQAGSGGGGTGDSEGSGALPSLTCSLTPLGLALVLWTVLGPC
B2: human NgR1 alanine mutant 189, 191, 211, 213, 237, 256, 259, 284 (receptor)
chain: B1 chain with R163A, S165A
B3: a.a. 181-864 (AmNg A): AP fusion protein of human Amino-Nogo fragment A, aa 181-864 of Nogo-A (protein)
chain: SSGSVDETLFALPAASEPVIRSSAENMDLKEQPGNTISAGQEDFPSVLLETAASLPSLSPLSAASFKEHEYLGNLSTVLPTEGTLQENVSEASKEVSEKAKTLLIDRDLTEFSELEYSEMGSSFSVSPKAESAVIVANPREEIIVKNKDEEEKLVSNNILHNQQELPTALTKLVKEDEVVSSEKAKDSFNEKRVAVEAPMREEYADFKPFERVWEVKDSKEDSDMLAAGGKIESNLESKVDKKCFADSLEQTNHEKDSESSNDDTSFPSTPEGIKDRSGAYITCAPFNPAATESIATNIFPLLGDPTSENKTDEKKIEEKKAQIVTEKNTSTKTSNPFLVAAQDSETDYVTTDNLTKVTEEVVANMPEGLTPDLVQEACESELNEVTGTKIAYETKMDLVQTSEVMQESLYPAAQLCPSFEESEATPSPVLPDIVMEAPLNSAVPSAGASVIQPSSSPLEASSVNYESIKHEPENPPPYEEAMSVSLKKVSGIKEEIKEPENINAALQETEAPYISIACDLIKETKLSAEPAPDFSDYSEMAKVEQPVPDHSELVEDSSPDSEPVDLFSDDSIPDVPQKQDETVMLVKESLTETSFESMIEYENKEKLSALPPEGGKPYLESFKLSLDNTKDTLLPDEVSTLSKKEKIPLQMEELSTAVYSNDDLFISKEAQIRETETFSDSSP
modifications: left off: large carriers
notes: AP fusion protein of human Amino-Nogo fragment A, aa 181-864 of Nogo-A

Assays:
E13 chick DRG neurons = assay: AP fusion protein binding to dissociated E13 chick DRG neurons
Source text: FIG. 1E. Binding of AP fused Amino-Nogo fragments to dissociated E13 chick DRG neurons. Conditioned media from HEK293T cells containing AP fusion protein as indicated were applied to dissociated E13 chick DRG neurons and bound AP was stained.
If these Amino-Nogo fragments are to play a role in regulating neurite outgrowth then they would be expected to bind to neuronal processes. Previously, we have shown that AP-Nogo-66 binds to NgR on DRG processes (Fournier, A. E., et al., Nature 409:341-346 (2001)).

AP-Nogo-66 = target: T1, AP-Nogo-66 (UniProt Q9NQC3 1055-1120); assay: AP-ligand binding, COS-7
T1 construct: domain: Nogo-66; construct described elsewhere (Fournier 2001); also called AP-Ng66; Ng66; not shown: alkaline phosphatase (AP); construct described elsewhere
T1 sequence (looked up): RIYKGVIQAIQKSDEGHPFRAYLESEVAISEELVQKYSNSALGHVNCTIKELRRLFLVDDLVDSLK

[1] = target: T2, AP fusion protein with the B4C fragment of Amino-Nogo-A fused directly to Nogo-66 (human, UniProt Q9NQC3 1055-1120); assay: AP-ligand binding, COS-7
T2 construct: domain: Nogo-66; also called AP-B4C66; AP-B4C-66; not shown: alkaline phosphatase (AP), vector pcAP6
T2 sequence: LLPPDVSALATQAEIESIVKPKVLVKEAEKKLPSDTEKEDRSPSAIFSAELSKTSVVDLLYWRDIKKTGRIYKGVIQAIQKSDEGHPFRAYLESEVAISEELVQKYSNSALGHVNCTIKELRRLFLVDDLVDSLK

[2] = target: T3, AP-fused Amino-Nogo fragment B4C (a.a. 950-1018) (human, UniProt Q9NQC3 950-1018); assay: AP-ligand binding, COS-7
T3 construct: also called AmNg B4C; AP-B4C; not shown: alkaline phosphatase (AP), vector pcAP6
T3 sequence: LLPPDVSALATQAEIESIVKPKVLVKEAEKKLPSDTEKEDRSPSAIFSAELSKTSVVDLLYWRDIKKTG

NgR ligands = assay: Binding of alanine substituted NgR mutants to NgR ligands, summary categories; conditions: AP-Nogo66, AP-B4C, AP-B4C66, AP-Lingo-1, AP-OMgp and AP-MAG; compared to wild type NgR
How it was run: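 Human NgR1 template; 74 mutants with 1-8 solvent-exposed charged surface residues (within 5 Å) Ala-substituted, plus glycosylation-site mutants and D259N polymorphism. Mutants tested for binding of AP-tagged Nogo66, Amino-Nogo-B4C, B4C66, MAG, OMgp and Lingo-1; each classed as losing all, keeping all, or selective ligand binding.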

AP-Nogo66 = target: T4, AP-Nogo66 (Homo sapiens, UniProt Q9NQC3); assay: Binding of AP-Nogo66 to COS-7 cells expressing NgR mutants; parameters: key: ++: WT level; +: weaker than wild type; trace binding; −: no binding; conditions: AP-Ng66 5 nM; level of binding compared to wild type NgR
T4 construct: made in house; NgR mutants: COS-7
T4 sequence (Q9NQC3 1055-1120 limits assumed): T1 sequence (looked up)
How it was run: (§1)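 COS-7 cells expressing Ala-substituted human NgR1 mutants incubated with AP-fused ligands at near-Kd levels (AP-Ng66 5 nM, AP-B4C66 0.5 nM, AP-Lingo-1 10 nM, AP-OMGP 10 nM). Bound AP stained and measured as % of wild-type NgR; graded ++/+/tr/−.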

AP-B4C = target: T5, AP-B4C (Homo sapiens, UniProt Q9NQC3); assay: Binding of AP-B4C to COS-7 cells expressing NgR mutants; parameters: key: ++: WT level; +: weaker than wild type; trace binding; −: no binding; conditions: AP-B4C 10 nM; level of binding compared to wild type NgR
T5 construct: a.a; 950-1018 (AmNg B4C); made in house; host or cells: AP ligand: HEK293T conditioned medium; NgR mutants: COS-7
T5 sequence (Q9NQC3 950-1018): T3 sequence

AP-B4C66 = assay: Binding of AP-B4C66 to COS-7 cells expressing NgR mutants; parameters: key: ++: WT level; +: weaker than wild type; trace binding; −: no binding; conditions: AP-B4C66 0.5 nM; level of binding compared to wild type NgR
How it was run: as §1

AP-Lingo-1 = target: T6, AP-Lingo-1 (Homo sapiens, UniProt Q96FE5); assay: Binding of AP-Lingo-1 to COS-7 cells expressing NgR mutants; parameters: key: ++: WT level; +: weaker than wild type; trace binding; −: no binding; conditions: AP-Lingo-1 10 nM; level of binding compared to wild type NgR
T6 construct: made in house; NgR mutants: COS-7
T6 sequence (Q96FE5 40-538 limits assumed): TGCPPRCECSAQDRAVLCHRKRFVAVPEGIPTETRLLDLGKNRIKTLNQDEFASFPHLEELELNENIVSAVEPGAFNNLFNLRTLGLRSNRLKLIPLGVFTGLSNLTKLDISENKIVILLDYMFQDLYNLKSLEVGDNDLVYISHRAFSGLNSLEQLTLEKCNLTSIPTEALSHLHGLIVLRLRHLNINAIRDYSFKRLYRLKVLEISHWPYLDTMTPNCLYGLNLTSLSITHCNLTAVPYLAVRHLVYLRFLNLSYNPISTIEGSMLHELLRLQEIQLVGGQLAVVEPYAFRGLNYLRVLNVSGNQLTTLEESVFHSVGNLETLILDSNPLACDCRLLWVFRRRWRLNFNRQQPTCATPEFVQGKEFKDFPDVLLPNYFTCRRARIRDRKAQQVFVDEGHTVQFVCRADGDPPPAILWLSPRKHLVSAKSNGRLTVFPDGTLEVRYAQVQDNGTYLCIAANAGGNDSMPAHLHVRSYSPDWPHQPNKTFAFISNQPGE
How it was run: as §1

AP-OMgp = assay: Binding of AP-OMgp to COS-7 cells expressing NgR mutants; parameters: key: ++: WT level; +: weaker than wild type; trace binding; −: no binding; conditions: AP-OMGP 10 nM; level of binding compared to wild type NgR
How it was run: as §1

AP-MAG = assay: Binding of AP-MAG to COS-7 cells expressing NgR mutants; parameters: key: ++: WT level; +: weaker than wild type; trace binding; −: no binding; conditions: AP-MAG 30 nM; level of binding compared to wild type NgR
NgR = target: T7, NgR (Homo sapiens, UniProt Q9BZR6); assay: AP fusion protein binding to NgR expressing COS-7 cells; conditions: AP fused Amino-Nogo fragments in conditioned media on NgR expressing COS-7 cells; 'No binding at' cells continue on the next line: AmNg A 150 nM; a.a. 1000-1018, a.a. 1005-1018, Amino of NgC 25 nM; a.a. 950-1004 50 nM; Amino of NgB 100 nM
T7 construct: expressed in transfected cells; host or cells: COS-7
T7 sequence (Q9BZR6 27-447): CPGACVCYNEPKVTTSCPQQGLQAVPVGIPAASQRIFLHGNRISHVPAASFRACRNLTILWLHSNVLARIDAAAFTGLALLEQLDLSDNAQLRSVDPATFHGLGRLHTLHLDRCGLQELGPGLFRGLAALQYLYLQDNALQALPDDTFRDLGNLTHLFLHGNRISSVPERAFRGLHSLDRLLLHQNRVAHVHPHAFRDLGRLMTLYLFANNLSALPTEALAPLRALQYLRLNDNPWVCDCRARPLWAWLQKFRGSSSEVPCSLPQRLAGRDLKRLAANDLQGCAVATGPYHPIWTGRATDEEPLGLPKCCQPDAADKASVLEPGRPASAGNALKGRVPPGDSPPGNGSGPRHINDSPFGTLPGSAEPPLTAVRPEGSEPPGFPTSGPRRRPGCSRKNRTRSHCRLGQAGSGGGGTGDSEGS
How it was run: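 Conditioned media from HEK293T cells transfected with AP-fused human Amino-Nogo-A fragments, collected after 7 days, applied to NgR-expressing COS-7 cells. Bound AP stained and quantified by image analysis; saturable binding used to derive Kd.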

Row | Molecule | binding to DRG axons/neurons (E13 chick DRG neurons) | binding result (AP-Nogo-66) | binding result [1] | binding result [2] | ligand binding category of NgR mutant (Table II) (NgR ligands) | Ng66 (AP-Nogo66) | B4C (AP-B4C) | B4C-66 (AP-B4C66) | Lingo-1 (AP-Lingo-1) | OMgp (AP-OMgp) | MAG (AP-MAG) | NgR Kd (nM) (NgR)
1 | IFSAELSKTSVVDLLYWRDIKKTG (not fully specified) [a.a. 995-1018 (Amino-Nogo-A-24), AP fusion protein of Nogo-A aa 995-1018] | binding to DRG axons |  |  |  |  |  |  |  |  |  |  | 
2 | B1 |  | no binding | no binding | no binding | Differential binding | − | − | − | ++ | − | − | 
3 | B2 |  | no binding | no binding | no binding | Differential binding | − | − | − | ++ | − |  | 
4 | B3 | binds to DRG axons |  |  |  |  |  |  |  |  |  |  | No Binding
